Reference: paper PMC10688287, “RNA binding protein AUF1/HNRNPD regulates nuclear export, stability and translation of SNCA transcripts” (Open Biology, 2023)

Target: T1, CNOT1 (UniProt A5YKK6 1-2376)
T1 construct: CNOT1, scaffold subunit of the CCR4-NOT deadenylase complex; Endogenous human CNOT1 of the SK-N-SH cells is precipitated by the anti-CNOT1 antibody as well; source: SK-N-SH, transfected (CNOT1 plasmid), in lysate
Assay: co-IP; anti-CNOT1 antibody or control IgG, protein A/G magnetic beads; lysates of SK-N-SH cells 48 h after co-transfection with CNOT1 and either empty or AUF1-expressing plasmid; PLB lysis buffer (10 mM HEPES pH 7.0, 100 mM KCl, 5 mM MgCl2, 0.5% NP-40); washes in NT2 buffer with 250 mM NaCl; Western blot
Conditions: partners not purified

T1 sequence (A5YKK6 whole entry): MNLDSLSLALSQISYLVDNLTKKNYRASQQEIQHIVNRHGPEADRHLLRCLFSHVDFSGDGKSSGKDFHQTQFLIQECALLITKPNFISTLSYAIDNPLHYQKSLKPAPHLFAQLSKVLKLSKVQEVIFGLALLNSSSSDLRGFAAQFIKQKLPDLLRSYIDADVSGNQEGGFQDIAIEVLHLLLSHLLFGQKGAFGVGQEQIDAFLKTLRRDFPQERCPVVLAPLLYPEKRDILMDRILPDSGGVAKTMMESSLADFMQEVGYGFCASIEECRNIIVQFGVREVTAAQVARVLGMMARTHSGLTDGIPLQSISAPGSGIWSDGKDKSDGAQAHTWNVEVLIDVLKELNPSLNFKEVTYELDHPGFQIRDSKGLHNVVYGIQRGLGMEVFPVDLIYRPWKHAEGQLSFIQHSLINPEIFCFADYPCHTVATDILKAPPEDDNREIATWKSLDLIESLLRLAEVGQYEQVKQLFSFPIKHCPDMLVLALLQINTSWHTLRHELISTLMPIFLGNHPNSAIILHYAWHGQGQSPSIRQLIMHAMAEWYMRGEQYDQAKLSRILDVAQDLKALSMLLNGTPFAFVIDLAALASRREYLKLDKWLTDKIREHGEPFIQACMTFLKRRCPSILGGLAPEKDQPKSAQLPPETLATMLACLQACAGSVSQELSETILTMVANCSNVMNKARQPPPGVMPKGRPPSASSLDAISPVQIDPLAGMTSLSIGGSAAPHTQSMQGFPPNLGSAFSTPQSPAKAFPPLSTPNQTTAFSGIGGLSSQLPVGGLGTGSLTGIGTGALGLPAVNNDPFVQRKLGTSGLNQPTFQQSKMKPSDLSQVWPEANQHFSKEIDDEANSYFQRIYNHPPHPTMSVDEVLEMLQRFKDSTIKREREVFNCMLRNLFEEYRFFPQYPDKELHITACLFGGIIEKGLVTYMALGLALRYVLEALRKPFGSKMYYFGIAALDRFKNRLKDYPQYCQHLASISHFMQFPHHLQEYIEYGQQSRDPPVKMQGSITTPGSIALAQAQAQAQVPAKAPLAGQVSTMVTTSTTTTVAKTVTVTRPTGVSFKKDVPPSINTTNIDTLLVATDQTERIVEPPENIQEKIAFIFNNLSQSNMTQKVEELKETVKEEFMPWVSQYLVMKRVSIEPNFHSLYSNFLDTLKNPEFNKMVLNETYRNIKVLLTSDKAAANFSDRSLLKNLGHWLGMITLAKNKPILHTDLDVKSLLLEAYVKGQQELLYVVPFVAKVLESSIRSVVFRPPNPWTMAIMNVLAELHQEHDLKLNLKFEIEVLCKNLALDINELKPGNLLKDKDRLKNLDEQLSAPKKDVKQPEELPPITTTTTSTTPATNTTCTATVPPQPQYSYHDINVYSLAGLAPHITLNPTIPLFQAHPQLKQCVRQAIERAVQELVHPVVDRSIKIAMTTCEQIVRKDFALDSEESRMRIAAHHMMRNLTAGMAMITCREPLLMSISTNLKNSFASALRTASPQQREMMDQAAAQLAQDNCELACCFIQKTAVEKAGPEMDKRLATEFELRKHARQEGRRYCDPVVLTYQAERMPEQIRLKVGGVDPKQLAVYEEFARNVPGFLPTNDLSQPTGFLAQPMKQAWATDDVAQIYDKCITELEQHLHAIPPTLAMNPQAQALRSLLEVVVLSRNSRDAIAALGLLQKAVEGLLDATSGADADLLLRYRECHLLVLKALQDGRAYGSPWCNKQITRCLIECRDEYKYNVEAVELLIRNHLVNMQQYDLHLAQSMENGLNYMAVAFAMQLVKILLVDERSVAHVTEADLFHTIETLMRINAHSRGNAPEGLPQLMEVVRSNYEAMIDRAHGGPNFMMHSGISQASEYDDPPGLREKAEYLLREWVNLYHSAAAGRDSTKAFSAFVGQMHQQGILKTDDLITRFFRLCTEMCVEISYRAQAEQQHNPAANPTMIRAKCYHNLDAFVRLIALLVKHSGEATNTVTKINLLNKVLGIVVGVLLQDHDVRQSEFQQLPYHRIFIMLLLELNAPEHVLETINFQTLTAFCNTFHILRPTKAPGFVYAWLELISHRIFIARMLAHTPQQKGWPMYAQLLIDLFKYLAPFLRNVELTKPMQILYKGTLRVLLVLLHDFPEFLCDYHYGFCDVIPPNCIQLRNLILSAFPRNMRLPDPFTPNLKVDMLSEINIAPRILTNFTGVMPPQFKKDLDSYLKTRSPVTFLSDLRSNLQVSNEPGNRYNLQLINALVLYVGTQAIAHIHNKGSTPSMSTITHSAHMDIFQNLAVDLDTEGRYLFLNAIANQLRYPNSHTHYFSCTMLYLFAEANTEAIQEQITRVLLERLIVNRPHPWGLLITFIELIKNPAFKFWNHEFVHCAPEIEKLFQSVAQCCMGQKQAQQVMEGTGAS

- fold enrichment in the CNOT1 immunoprecipitate: 1.6 fold
B1: AUF1 (heterogeneous nuclear ribonucleoprotein D, HNRNPD), 42 kDa protein (natural protein, human, UniProt Q14103-2 1-336, looked up)
chain: MSEEQFGGDGAAAAATAAVGGSAGEQEGAMVAATQGAAAAAGSGAGTGGGTASGGTEGGSAESEGAKIDASKNEEDEGKMFIGGLSWDTTKKDLKDYFSKFGEVVDCTLKLDPITGRSRGFGFVLFKESESVDKVMDQKEHKLNGKVIDPKRAKAMKTKEPVKKIFVGGLSPDTPEEKIREYFGGFGEVESIELPMDNKTNKRRGFCFITFKEEEPVKKIMEKKYHNVGLSKCEIKVAMSKEQYQQQQQWGSRGGFAGRARGRGGGPSQNWNQGYSNYWNQGYGNYGYNSQGYGGYGGYDYTGYNNYYGYGDYSNQQSGYGKVSRRGGHQNSYKPY
notes: human AUF1/HNRNPD CDS encoding the 42 kDa protein (p42 isoform), amplified from SK-N-SH cDNA and cloned between KpnI and NotI of pENTR-GD; The co-IP was done in cells transfected with empty or AUF1-expressing plasmid; the anti-AUF1 blot also detects the endogenous AUF1 isoforms (p37, p40, p42, p45) of SK-N-SH cells; also called p42; source: SK-N-SH, transfected (AUF1-expressing plasmid), in lysate
